Substitutions are numbered along the chain they refer to.

By EC50 is commonly meant the midpoint of the concentration-response curve. A high value points to lower potency in that assay. As usually defined, the Kd is a measure of binding affinity in units of concentration. A high value points to a looser complex.

In one assay the target is activated Factor X. In words: direct ELISA, FXa coated at 10 ug/ml, positive control antibody specific for the antigen, concentration not given. In general terms: ELISA stands for enzyme-linked immunosorbent assay.
Sequence of activated Factor X (P00742 41-179, chain 1 of 2): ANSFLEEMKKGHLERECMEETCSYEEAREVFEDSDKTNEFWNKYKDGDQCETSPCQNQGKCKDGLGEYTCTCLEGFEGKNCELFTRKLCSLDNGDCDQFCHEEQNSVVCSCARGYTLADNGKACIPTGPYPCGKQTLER
Sequence of activated Factor X (P00742 235-488, chain 2 of 2): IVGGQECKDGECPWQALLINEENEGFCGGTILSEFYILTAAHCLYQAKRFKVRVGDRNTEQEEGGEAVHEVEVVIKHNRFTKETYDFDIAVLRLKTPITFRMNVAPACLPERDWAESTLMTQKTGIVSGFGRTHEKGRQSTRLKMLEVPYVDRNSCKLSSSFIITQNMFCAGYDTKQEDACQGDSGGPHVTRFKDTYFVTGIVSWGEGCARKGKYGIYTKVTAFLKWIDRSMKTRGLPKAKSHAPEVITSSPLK
In assay [1] the target is activated Factor II (thrombin) (Homo sapiens (Human)) (UniProt P00734). Briefly: direct ELISA, FIIa coated at 10 ug/ml, positive control antibody specific for the antigen, concentration not given.
In assay [2] the target is T1, human activated Protein C (human, UniProt P04070 43-461). Briefly: direct ELISA, hAPC coated at 1 ug/ml, positive control antibody specific for the antigen, concentration not given.
Assay [3] addresses T2, mouse Protein C (zymogen) (mouse, UniProt P33587 42-460).
T2 construct: mature; also called mouse PC
T2 sequence (looked up): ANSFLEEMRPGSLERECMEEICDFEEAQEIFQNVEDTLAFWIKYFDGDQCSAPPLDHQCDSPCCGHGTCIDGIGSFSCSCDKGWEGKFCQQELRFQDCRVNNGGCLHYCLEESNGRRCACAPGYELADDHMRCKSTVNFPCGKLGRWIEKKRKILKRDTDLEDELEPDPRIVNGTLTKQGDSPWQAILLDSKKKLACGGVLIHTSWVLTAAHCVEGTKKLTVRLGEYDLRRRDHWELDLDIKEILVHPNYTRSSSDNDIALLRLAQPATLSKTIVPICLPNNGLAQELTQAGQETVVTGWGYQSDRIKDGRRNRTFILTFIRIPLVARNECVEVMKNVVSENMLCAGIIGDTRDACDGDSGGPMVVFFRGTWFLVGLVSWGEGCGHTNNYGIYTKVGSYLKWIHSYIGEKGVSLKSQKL
In words: direct ELISA, mPC coated at 10 ug/ml, positive control antibody specific for the antigen, concentration not given.

In a further assay the target is activated Factor VII. Briefly: direct ELISA, FVIIa coated at 10 ug/ml, positive control antibody specific for the antigen, concentration not given.
Sequence of activated Factor VII (P08709 61-212, chain 1 of 2): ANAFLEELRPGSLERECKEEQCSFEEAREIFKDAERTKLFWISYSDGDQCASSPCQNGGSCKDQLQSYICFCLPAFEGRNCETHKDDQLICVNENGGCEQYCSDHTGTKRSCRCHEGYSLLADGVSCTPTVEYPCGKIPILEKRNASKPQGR
Sequence of activated Factor VII (P08709 213-466, chain 2 of 2): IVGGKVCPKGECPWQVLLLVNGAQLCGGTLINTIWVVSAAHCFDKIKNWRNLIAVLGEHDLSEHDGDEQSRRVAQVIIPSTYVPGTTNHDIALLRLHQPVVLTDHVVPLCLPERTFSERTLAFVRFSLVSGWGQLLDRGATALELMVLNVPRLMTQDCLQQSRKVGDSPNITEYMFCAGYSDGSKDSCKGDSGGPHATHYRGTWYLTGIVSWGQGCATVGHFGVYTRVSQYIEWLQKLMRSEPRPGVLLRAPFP
Assay [4] has as its target T3, dog Protein C (zymogen) (dog, UniProt Q28278 43-456).
T3 construct: mature; also called dog PC
T3 sequence (looked up): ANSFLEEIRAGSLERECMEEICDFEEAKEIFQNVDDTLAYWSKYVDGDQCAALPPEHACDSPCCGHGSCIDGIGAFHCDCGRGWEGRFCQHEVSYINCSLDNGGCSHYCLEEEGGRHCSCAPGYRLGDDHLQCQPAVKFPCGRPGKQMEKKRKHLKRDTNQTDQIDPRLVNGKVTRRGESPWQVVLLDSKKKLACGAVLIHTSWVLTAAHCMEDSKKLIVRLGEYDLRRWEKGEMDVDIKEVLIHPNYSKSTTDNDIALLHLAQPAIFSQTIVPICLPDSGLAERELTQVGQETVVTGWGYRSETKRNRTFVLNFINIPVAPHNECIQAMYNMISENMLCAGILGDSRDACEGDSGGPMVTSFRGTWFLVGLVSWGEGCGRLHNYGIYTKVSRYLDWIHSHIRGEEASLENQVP
In words: direct ELISA, dPC coated at 10 ug/ml, positive control antibody specific for the antigen, concentration not given.

Another assay deals with activated Factor IX. In words: direct ELISA, FIXa coated at 5 ug/ml, positive control antibody specific for the antigen, concentration not given.
Assay [5] has as its target T4, dog activated Protein C (dog, UniProt Q28278 43-456).
T4 construct: mature; also called dog aPC; dAPC
T4 sequence (looked up): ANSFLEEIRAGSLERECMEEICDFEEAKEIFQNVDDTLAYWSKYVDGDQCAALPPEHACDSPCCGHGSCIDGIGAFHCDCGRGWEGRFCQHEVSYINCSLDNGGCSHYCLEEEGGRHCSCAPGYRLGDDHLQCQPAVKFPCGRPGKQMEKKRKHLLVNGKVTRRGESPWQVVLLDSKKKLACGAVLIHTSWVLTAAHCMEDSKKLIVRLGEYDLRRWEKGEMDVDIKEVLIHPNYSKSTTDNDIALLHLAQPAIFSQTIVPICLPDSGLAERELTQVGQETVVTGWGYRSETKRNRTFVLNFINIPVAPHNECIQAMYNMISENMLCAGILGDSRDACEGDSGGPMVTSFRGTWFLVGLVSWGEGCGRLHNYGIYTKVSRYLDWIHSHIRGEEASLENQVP
Briefly: direct ELISA, aPC coated, hIgG1.

Assay [6] addresses T1, human activated Protein C. Briefly: direct ELISA, aPC coated, hIgG1.
Assay [7] addresses T1, human activated Protein C. Briefly: cell-based or functional assay.
Assay [8] has as its target rabbit activated Protein C (rabbit) (UniProt Q28661). In words: cell-based or functional assay.
Assay [9] addresses T1, human activated Protein C. In words: cell-based or functional assay. This is another data set of the same source.
In assay [10] the target is mouse activated Protein C (mouse) (UniProt P33587). In words: direct ELISA, hIgG1.
Assay [11] deals with T3, dog Protein C (zymogen). Briefly: direct ELISA, antigen coated.
Assay [12] concerns the target rabbit activated Protein C (rabbit) (UniProt Q28661). Briefly: ELISA, hIgG1.
For assay [13], the target named is T4, dog activated Protein C. In words: cell-based or functional assay.
The target in assay [14] is T1, human activated Protein C. Briefly: cell-based or functional assay. The source holds these as a separate data set.
Assay [15] addresses T4, dog activated Protein C. In words: ELISA, hIgG1.
Assay [16] deals with T1, human activated Protein C. Briefly: ELISA, hIgG1.
Assay [17] addresses mouse activated Protein C (mouse) (UniProt P33587). Briefly: direct ELISA, aPC coated, hIgG1.
Assay [18] addresses rabbit activated Protein C (rabbit) (UniProt Q28661). In words: direct ELISA, aPC coated, hIgG1.
The target in assay [19] is T4, dog activated Protein C. Briefly: ELISA and Biacore, as the sentence says.
Assay [20] concerns the target T3, dog Protein C (zymogen). In words: direct ELISA, dPC coated at 10 ug/ml, Fab at 20 nM, anti-human Fab-HRP, AmplexRed (RFU). As to the method:
To determine the binding selectivity of these fabs, their binding activities to the proenzyme human PC, to thrombin (FIIa), and to the activated Factor II (FIIa, thrombin), Factor VII (FVIIa), Factor IX (FIXa), and Factor X (FXa) were also assessed by ELISA. Briefly, an ELISA plate was coated with human aPC at 1 ug/ml, mouse PC at 10 ug/ml, dog PC at 10 ug/ml, other coagulation factors (FIIa, FVIIa, FIXa, FXa) at 5-10 ug/ml. Anti-aPC Fabs were added to the wells at 20 nM (1 ug/ml). Bound Fabs were detected by the secondary antibody (anti-human Fab-HRP) followed by HRP substrate AmplexRed.

The target of assay [21] is T4, dog activated Protein C. Briefly: direct ELISA, antigen coated, Fab.
Assay [22] deals with T1, human activated Protein C. Briefly: direct ELISA, antigen coated, Fab.
The target of assay [23] is T4, dog activated Protein C. Briefly: Biacore, Fab.
The target in assay [24] is T1, human activated Protein C. In words: Biacore, Fab. For orientation: In SPR one partner is held on a chip, and binding of the other changes the refractive index at the surface.
Assay [25] concerns the target T5, human Protein C (zymogen) (human, UniProt P04070 43-461).
T5 construct: also called human PC; hPC
Briefly: direct ELISA, antigen coated at 1 ug/ml, IgG at 20 nM, anti-human IgG-HRP, AmplexRed (RFU).

Take “control Ab (specific for each antigen) (antibody)”: the RFU in the assay with activated Factor X came out at 6460 RFU; in [1] it was 6050 RFU; in assay [2] it was 11700 RFU; in assay [3], 331 RFU; with activated Factor VII it was 10300 RFU; with dog Protein C (zymogen) [4] it was 476 RFU. The RFU with activated Factor IX is 7370 RFU.

B1: T46J23-hIgG1 (antibody, V domains shown)
VH: EVQLLESGGGLVQPGGSLRLSCAASGFTFGNHWMTWVRQAPGKGLEWVSGVSWNGSRTHYADSVKGRFTISRDNSKNTLYLQMNSLRAEDTAVYYCALTGRSGWMRFPNWFDPWGQGTLVTVTS
VL: LTQPPSASGTPGQRVTISCTGTSSNIGAGYDVHWYQQLPGTAPKLLIYDNNNRPSGVPDRFSGSKSGTSASLAISGLRSEDEADYYCAAWDDSLNGVVFGGGTKLTVLG
notes: also called T46J23-IgG
Turning to B1, the EC50 amounted to 1.68 nM with dog activated Protein C [5]; 2.18 nM in assay [6]; 6 nM in assay [10]; 1.7 nM in [12]; 1.7 nM with dog activated Protein C [15]; 2.2 nM in assay [16]. Further, the EC50 in assay [17] turned out to be 4.6 nM; in [18] it was 7 nM. Moreover, the “aPTT, inhibition of aPC activity at 1 ug/ml IgG (1:1 molar ratio)” value in [7] was approximately 50%. Further, the figures for the Anti-aPC IC50 (nM), Amidolytic activity (in assay [8]; with dog activated Protein C [13]; in assay [14]) were 17 nM, 625 nM and 18 nM, respectively. In addition, the “IC50 (read off the curve), amidolytic activity of human aPC [b]” value in assay [9] is approximately 8 nM. Also, the binding result in the assay with dog Protein C (zymogen) [11] was “no binding”.

B2: T46J23 Fab (Fab, V domains shown)
VH: B1 VH
VL: B1 VL
notes: Human Fab (lambda), expressed in E. coli
With B2, the Kd in the assay with dog activated Protein C [19] amounted to 22 nM; with dog activated Protein C [23], 21 nM; in assay [24] it was 4.1 nM. For the same molecule, the binding result with dog Protein C (zymogen) [20] was “no binding (tested: 20 nM)”. Besides, the EC50 in the assay with dog activated Protein C [21] was found to be 16.6 nM; in assay [22], 6.7 nM.

B3: C25K23 IgG1 (antibody, V domains shown)
VH: B1 VH with G30S, N31S, H32Y, T35S, T123S
VL: QSVLTQPPSASGTPGQRVTISCTGSSSNIGAAYDVHWYQQLPGTAPKLLIYGNNKRPSGVPDRFSGSKSGTSASLAISGLRSEDEADYYCQSYDSSLSGSVFGGGTKLTVLG
notes: the claims call them variable regions; also called C25K23 hIgG; C25K23 hIgG1
Turning to B3, the EC50 with dog activated Protein C [5] was found to be 3.4 nM; in [6] it was 1.25 nM; in the assay with dog activated Protein C [15] it was 3.4 nM; in assay [16] it was 1.2 nM. In addition, the binding result in assay [25] was “no binding (tested: 20 nM)”; with dog Protein C (zymogen) [11], “no binding”. In addition, the “Anti-aPC IC50 (nM), Amidolytic activity” value with dog activated Protein C [13] amounted to 692 nM; in assay [14], 131 nM.

B4: C7I7 hIgG1 (antibody, V domains shown)
VH: B1 VH
VL: QSVLTQPPSASGTPGQRVTISCTGSSSNIGAGYDVHWYQQLPGTAPKLLIYGNSNRPSGVPDRFSGSKSGTSASLAISGLRSEDEAAYYCSSYVGSDLVVFGGGTKLTVLG
notes: also called C717-IgG
B4: the EC50 with dog activated Protein C [5] is 2.3 nM; in [6], 2.66 nM; in assay [12], 2 nM; with dog activated Protein C [15], 2.3 nM; in [16] it was 2.7 nM; in assay [18], 2 nM. Moreover, in assay [7], the “aPTT, inhibition of aPC activity at 1 ug/ml IgG (1:1 molar ratio)” value was approximately 50%. For the same molecule, the Anti-aPC IC50 (nM), Amidolytic activity in assay [8] came out at 29 nM; with dog activated Protein C [13], 147 nM; in assay [14], 64 nM. The binding result in assay [25] was “no binding (tested: 20 nM)”; with dog Protein C (zymogen) [11], “no binding”.

B5: Variant 2312 (modified C25K23 IgG) (antibody, V domains shown)
VH: B1 VH with G30S, N31S, H32Y, T35S, S56A, T123S
VL: B3 VL with A10V, T13A, S78T, R81Q, S82A
B5: the “IC50 (read off the curve), amidolytic activity of human aPC [b]” value in assay [9] is approximately 10 nM.

The values are drawn from patent US20150307625A1 (Bayer, published 2015).
